Molecular target: His-tagged full-length p53 (UniProt P04637 1-393)
Assay: co-IP

His-tagged full-length p53, sequence (P04637 whole entry): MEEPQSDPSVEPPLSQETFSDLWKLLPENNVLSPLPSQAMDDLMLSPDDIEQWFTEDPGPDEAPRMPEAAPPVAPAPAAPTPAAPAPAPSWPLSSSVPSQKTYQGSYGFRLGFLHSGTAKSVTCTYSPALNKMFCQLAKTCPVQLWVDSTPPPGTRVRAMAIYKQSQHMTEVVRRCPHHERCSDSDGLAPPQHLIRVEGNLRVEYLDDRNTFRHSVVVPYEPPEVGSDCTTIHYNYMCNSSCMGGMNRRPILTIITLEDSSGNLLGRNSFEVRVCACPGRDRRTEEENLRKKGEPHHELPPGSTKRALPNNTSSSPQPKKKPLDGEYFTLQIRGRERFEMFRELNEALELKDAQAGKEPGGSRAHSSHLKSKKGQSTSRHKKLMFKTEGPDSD

binding result: binds
B1: His-tagged minimal-binding region of Dmp1 for p53 (M14: amino acids 87–224) (domain or fragment, UniProt Q8CE22 87-224, looked up)
chain: VTMTATTEVADDELSEGTVTQIQILQNDQLDEISPLGTEEVSAVSQAWFTTKEDKDSLTNKGHKWKQGMWSKEEIDILMNNIERYLKARGIKDATEIIFEMSKDERKDFYRTIAWGLNRPLFAVYRRVLRMYDDRNHV

Source: article PMC3319807 (Cancer Research, 2012)
